Laboratory results taken from IntAct's records for PubMed 16628218.

B1: Beta-chimaerin (Homo sapiens), P52757 (parent)
chain: MAASSNSSLSGSSVSSDAEEYQPPIWKSYLYQLQQEAPRPKRIICPREVENRPKYYGREFHGIISREQADELLGGVEGAYILRESQRQPGCYTLALRFGNQTLNYRLFHDGKHFVGEKRFESIHDLVTDGLITLYIETKAAEYISKMTTNPIYEHIGYATLLREKVSRRLSRSKNEPRKTNVTHEEHTAVEKISSLVRRAALTHNDNHFNYEKTHNFKVHTFRGPHWCEYCANFMWGLIAQGVRCSDCGLNVHKQCSKHVPNDCQPDLKRIKKVYCCDLTTLVKAHNTQRPMVVDICIREIEARGLKSEGLYRVSGFTEHIEDVKMAFDRDGEKADISANVYPDINIITGALKLYFRDLPIPVITYDTYSKFIDAAKISNADERLEAVHEVLMLLPPAHYETLRYLMIHLKKVTMNEKDNFMNAENLGIVFGPTLMRPPEDSTLTTLHDMRYQKLIVQILIENEDVLF

Variants of: B1
Settings: with rac1_human RAC1, P63000

Variant	effect of a mutation on the interaction
C264A	disrupting interaction
Q32A	increasing interaction
